The results in this text go back to patent US20250043019A1 (Janssen / Centocor, published 2025).

In this test the target is T1, human CD20 on the cell surface (human, UniProt P11836 1-297).
T1 construct: whole, on cells; On B-lymphoma lines, primary B cells, K562 CD20 or HEK293 transfectants; also called MS4A1; B-lymphocyte antigen CD20
T1 sequence (looked up): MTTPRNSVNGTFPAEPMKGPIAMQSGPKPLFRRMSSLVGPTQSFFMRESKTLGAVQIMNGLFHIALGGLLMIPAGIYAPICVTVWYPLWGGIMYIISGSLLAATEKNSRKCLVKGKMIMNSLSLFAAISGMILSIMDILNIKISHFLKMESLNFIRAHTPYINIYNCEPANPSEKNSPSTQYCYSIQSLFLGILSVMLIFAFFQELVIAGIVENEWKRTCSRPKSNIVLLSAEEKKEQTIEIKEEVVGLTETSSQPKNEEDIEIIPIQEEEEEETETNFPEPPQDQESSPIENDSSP
Description: cell-based binding on CARNAVAL cells.

B1: CD20 binding arm of C923B169 tested as scFv (scFv)
chain: EIVLTQSPATLSLSPGERATLSCRASLSVSSMHWYQQKPGQAPRLLIYATSNLASGIPARFSGSGSGTDFTLTISSLEPEDFAVYYCQQWIFNPPTFGGGTKVEIKGGSEGKSSGSGSESKSTGGSQVQLVQSGAEVKKPGSSVKVSCKASGYTFSSYNMHWVRQAPGQGLEWMGAIYPGAGDTSYAQKFQGRVTITADESTSTAYMELSSLRSEDTAVYYCARSNYYGSSGWYFDVWGKGTTVTVSS
Molecule B1 returned an EC50 of 16 nM.

What is called EC50 is the concentration that produces a half-maximal response.
